The source of these data is patent publication US20090162369A1, “SYNTHETIC CHIMERIC PEPTIDES” (priority 2007, published 2009).

One experiment concerns the target p145 (Streptococcus pyogenes serotype M5, UniProt P02977). As to conditions: FIG. 3. The method, then:
The purified anti-TN peptide antibodies were tested for their ability to bind to p145.

The test system of the next experiment is multiple isolates of GAS. As to conditions: Pruksakorn et al., 1994a; cited from earlier work.
Another experiment concerns GAS. The following applies: cited from earlier work.
For a further experiment, the system named is B10.BR mice. The experiment in a line: Peptide-specific serum IgG titres of B10.BR mice immunised with peptides conjugated to diphtheria toxoid. The following applies: peptides conjugated to DT. It counts as in vivo. From the text: FIG. 9: The geometric mean of peptide-specific serum IgG titres of B10.BR mice immunised with different peptides conjugated to diphtheria toxoid (DT). Control mice were immunised with vehicle (PBS). Five mice were immunised per group and error bars show the standard error of the mean (SEM). The highest titres were obtained after primary immunisation plus two booster injections. Although titres had decreased 43 days after the final boost (Day 71), they remained reasonably high.
Female B10.BR mice were immunized with TN18, TN19, J18 and J19 peptides conjugated to diphtheria toxoid (DT). The following immunization protocol was used.
The peptide specific titres in the murine sera samples on day 35, after primary immunization and two boosters, were analyzed.
The self-peptide titres throughout the immunization protocol were analyzed at day 20, day 27, day 35 and day 71.

LRRDLDAEDEAKKQVEKALEC [TN peptide 3]: in the experiment with p145, the “binding affinity of purified anti-TN peptide antibodies for p145” value (“binding affinity” below) is recorded as “highest binding affinities”.
For LRRDLDAEREAKKQVERALEC [TN peptide 5], in the experiment with p145, the “binding affinity” value is recorded as “highest binding affinities”.
For LRRDLDASNEAKKQVEMALEC [TN peptide 14], in the experiment with p145, the “binding affinity” value is given as “highest binding affinities”.
In the case of LRRDLDASREAKKQVEKALE [p145], in the experiment with multiple isolates of GAS, the “opsonisation and killing of GAS by mouse antibodies raised against the peptide” value is “can opsonise and kill multiple isolates of GAS”. For the same sequence, the “inhibition of in vitro killing mediated by human sera” value in the experiment on GAS is on record as “can inhibit in vitro killing mediated by human sera”.
Regarding LRRDLDASREAKNQVEMALEC [TN peptide 19], in the experiment with p145, the “binding affinity” value is “highest binding affinities”.
As for LRRDLDASREAKNQVERALEC [TN peptide 18], the “binding affinity” value with p145 is recorded as “highest binding affinities”.
On the same count and under the same terms, with LRRDLDAVNEAKKQVEKALEC [TN peptide 7] the entry was “highest binding affinities”; with LRRDLDAVREAKKQVEMALEC [TN peptide 11], “highest binding affinities”.
As to QAEDKVKQSREAKNQVEMALKQLEDKVQ [J19], the “immunogenicity compared with the peptides disclosed in WO96/11944” value in the experiment on B10.BR mice is given as “improved immunogenicity”.
Still for that read-out and setting: the entry for QAEDKVKQSREAKNQVERALKQLEDKVQ [J18] is “improved immunogenicity”.
